Reference: US20130005646A1 (Novo Nordisk, published 2013)
Starred links: 1 amine or outer side, 2 acyl side, 3 side chain; linkers in the order of their positions; H or OH if unused. Positions of bridges follow the written chain, without caps; N, C: chain ends. Groups on a side chain read outwards from the residue. No end group written: not given here. *: point of attachment. C20 diacid = O=C(O)CCCCCCCCCCCCCCCCCCC(=O)*; C18 diacid = O=C(O)CCCCCCCCCCCCCCCCC(=O)*; γGlu = O=C(O)[C@H](CCC(=O)[*:2])N[*:1]; AEEA = NCCOCCOCC(=O)O

T1: human calcitonin (a) receptor (human, UniProt P30988 25-474)
T1 sequence (looked up): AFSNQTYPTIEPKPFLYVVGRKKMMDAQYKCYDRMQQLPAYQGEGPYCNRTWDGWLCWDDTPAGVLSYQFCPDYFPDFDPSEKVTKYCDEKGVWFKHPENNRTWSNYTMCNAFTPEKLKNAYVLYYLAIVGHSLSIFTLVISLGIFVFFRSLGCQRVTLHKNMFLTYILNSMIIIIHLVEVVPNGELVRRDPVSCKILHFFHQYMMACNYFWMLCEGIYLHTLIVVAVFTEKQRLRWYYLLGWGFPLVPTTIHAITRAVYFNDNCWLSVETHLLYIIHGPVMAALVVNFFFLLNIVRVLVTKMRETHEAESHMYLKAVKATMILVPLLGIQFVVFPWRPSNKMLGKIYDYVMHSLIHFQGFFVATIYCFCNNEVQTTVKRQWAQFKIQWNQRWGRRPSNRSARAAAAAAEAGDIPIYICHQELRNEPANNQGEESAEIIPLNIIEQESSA

T2: human amylin 3(a) receptor (human calcitonin receptor + RAMP-3) (human, UniProt P30988 25-474; O60896 24-148)
T2 sequence (looked up) 1: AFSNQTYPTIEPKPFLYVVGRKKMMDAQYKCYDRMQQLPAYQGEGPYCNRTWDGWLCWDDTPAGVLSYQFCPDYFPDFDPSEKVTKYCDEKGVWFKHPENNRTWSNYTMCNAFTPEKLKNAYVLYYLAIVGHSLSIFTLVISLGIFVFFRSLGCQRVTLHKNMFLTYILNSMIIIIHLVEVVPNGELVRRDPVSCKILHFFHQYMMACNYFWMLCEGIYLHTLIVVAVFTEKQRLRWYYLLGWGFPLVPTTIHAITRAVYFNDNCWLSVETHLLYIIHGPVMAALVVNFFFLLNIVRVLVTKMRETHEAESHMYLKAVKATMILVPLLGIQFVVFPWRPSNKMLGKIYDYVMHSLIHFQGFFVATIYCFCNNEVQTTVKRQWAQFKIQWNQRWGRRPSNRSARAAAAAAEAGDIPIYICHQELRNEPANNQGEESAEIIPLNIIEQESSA
T2 sequence (looked up) 2: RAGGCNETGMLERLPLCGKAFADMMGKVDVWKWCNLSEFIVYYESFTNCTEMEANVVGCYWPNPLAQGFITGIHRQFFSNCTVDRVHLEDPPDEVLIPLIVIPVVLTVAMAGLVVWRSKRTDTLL

B1: N-alpha-[(S)-4-Carboxy-4-(19-carboxynonadecanoylamino)butyryl]-[Glu14,His17,Gln21,Pro37]-pramlintide (peptide)
peptide: {C20 diacid-γGlu}-KCNTATCATQRLAEFLHHSSQNFGPILPPTNVGSNTP-NH2
modifications: disulfide 2-7
SMILES: CC[C@H](C)[C@H](NC(=O)[C@@H]1CCCN1C(=O)CNC(=O)[C@H](Cc1ccccc1)NC(=O)[C@H](CC(N)=O)NC(=O)[C@H](CCC(N)=O)NC(=O)[C@H](CO)NC(=O)[C@H](CO)NC(=O)[C@H](Cc1c[nH]cn1)NC(=O)[C@H](Cc1c[nH]cn1)NC(=O)[C@H](CC(C)C)NC(=O)[C@H](Cc1ccccc1)NC(=O)[C@H](CCC(=O)O)NC(=O)[C@H](C)NC(=O)[C@H](CC(C)C)NC(=O)[C@H](CCCNC(=N)N)NC(=O)[C@H](CCC(N)=O)NC(=O)[C@@H](NC(=O)[C@H](C)NC(=O)[C@@H]1CSSC[C@H](NC(=O)[C@H](CCCCN)NC(=O)CC[C@H](NC(=O)CCCCCCCCCCCCCCCCCCC(=O)O)C(=O)O)C(=O)N[C@@H](CC(N)=O)C(=O)N[C@@H]([C@@H](C)O)C(=O)N[C@@H](C)C(=O)N[C@@H]([C@@H](C)O)C(=O)N1)[C@@H](C)O)C(=O)N[C@@H](CC(C)C)C(=O)N1CCC[C@H]1C(=O)N1CCC[C@H]1C(=O)N[C@H](C(=O)N[C@@H](CC(N)=O)C(=O)N[C@H](C(=O)NCC(=O)N[C@@H](CO)C(=O)N[C@@H](CC(N)=O)C(=O)N[C@H](C(=O)N1CCC[C@H]1C(N)=O)[C@@H](C)O)C(C)C)[C@@H](C)O
B2: N-alpha-[(S)-4-Carboxy-4-(19-carboxynonadecanoylamino)butyryl]-Glu-Arg-[Glu1,Glu14,Arg17,Pro37]-pramlintide (peptide)
peptide: {C20 diacid-γGlu}-ERECNTATCATQRLAEFLRHSSNNFGPILPPTNVGSNTP-NH2
modifications: disulfide 4-9
SMILES: CC[C@H](C)[C@H](NC(=O)[C@@H]1CCCN1C(=O)CNC(=O)[C@H](Cc1ccccc1)NC(=O)[C@H](CC(N)=O)NC(=O)[C@H](CC(N)=O)NC(=O)[C@H](CO)NC(=O)[C@H](CO)NC(=O)[C@H](Cc1c[nH]cn1)NC(=O)[C@H](CCCNC(=N)N)NC(=O)[C@H](CC(C)C)NC(=O)[C@H](Cc1ccccc1)NC(=O)[C@H](CCC(=O)O)NC(=O)[C@H](C)NC(=O)[C@H](CC(C)C)NC(=O)[C@H](CCCNC(=N)N)NC(=O)[C@H](CCC(N)=O)NC(=O)[C@@H](NC(=O)[C@H](C)NC(=O)[C@@H]1CSSC[C@H](NC(=O)[C@H](CCC(=O)O)NC(=O)[C@H](CCCNC(=N)N)NC(=O)[C@H](CCC(=O)O)NC(=O)CC[C@H](NC(=O)CCCCCCCCCCCCCCCCCCC(=O)O)C(=O)O)C(=O)N[C@@H](CC(N)=O)C(=O)N[C@@H]([C@@H](C)O)C(=O)N[C@@H](C)C(=O)N[C@@H]([C@@H](C)O)C(=O)N1)[C@@H](C)O)C(=O)N[C@@H](CC(C)C)C(=O)N1CCC[C@H]1C(=O)N1CCC[C@H]1C(=O)N[C@H](C(=O)N[C@@H](CC(N)=O)C(=O)N[C@H](C(=O)NCC(=O)N[C@@H](CO)C(=O)N[C@@H](CC(N)=O)C(=O)N[C@H](C(=O)N1CCC[C@H]1C(N)=O)[C@@H](C)O)C(C)C)[C@@H](C)O
B3: N-alpha-[(S)-4-Carboxy-4-(19-carboxynonadecanoylamino)butyryl]-[Glu14,His17,Gln35,Pro37]-pramlintide (peptide)
peptide: {C20 diacid-γGlu}-KCNTATCATQRLAEFLHHSSNNFGPILPPTNVGSQTP-NH2
modifications: disulfide 2-7
SMILES: CC[C@H](C)[C@H](NC(=O)[C@@H]1CCCN1C(=O)CNC(=O)[C@H](Cc1ccccc1)NC(=O)[C@H](CC(N)=O)NC(=O)[C@H](CC(N)=O)NC(=O)[C@H](CO)NC(=O)[C@H](CO)NC(=O)[C@H](Cc1c[nH]cn1)NC(=O)[C@H](Cc1c[nH]cn1)NC(=O)[C@H](CC(C)C)NC(=O)[C@H](Cc1ccccc1)NC(=O)[C@H](CCC(=O)O)NC(=O)[C@H](C)NC(=O)[C@H](CC(C)C)NC(=O)[C@H](CCCNC(=N)N)NC(=O)[C@H](CCC(N)=O)NC(=O)[C@@H](NC(=O)[C@H](C)NC(=O)[C@@H]1CSSC[C@H](NC(=O)[C@H](CCCCN)NC(=O)CC[C@H](NC(=O)CCCCCCCCCCCCCCCCCCC(=O)O)C(=O)O)C(=O)N[C@@H](CC(N)=O)C(=O)N[C@@H]([C@@H](C)O)C(=O)N[C@@H](C)C(=O)N[C@@H]([C@@H](C)O)C(=O)N1)[C@@H](C)O)C(=O)N[C@@H](CC(C)C)C(=O)N1CCC[C@H]1C(=O)N1CCC[C@H]1C(=O)N[C@H](C(=O)N[C@@H](CC(N)=O)C(=O)N[C@H](C(=O)NCC(=O)N[C@@H](CO)C(=O)N[C@@H](CCC(N)=O)C(=O)N[C@H](C(=O)N1CCC[C@H]1C(N)=O)[C@@H](C)O)C(C)C)[C@@H](C)O
B4: N-alpha-[(S)-4-Carboxy-4-(19-carboxynonadecanoylamino)butyryl]-Glu-[Glu14,His17,Gln21,His35]-pramlintide (peptide)
peptide: {C20 diacid-γGlu}-EKCNTATCATQRLAEFLHHSSQNFGPILPPTNVGSHTY-NH2
modifications: disulfide 3-8; not fully specified; printed as N-alpha-[(S)-4-Carboxy-4-(19-carboxynonadecanoylamino)butyryl]-Glu-[Glu14,His17,Gln21,His35]-pramlintide
B5: N-epsilon25-[2-(2-{2-[2-(2-{2-[(S)-4-Carboxy-4-(17-carboxyheptadecanoylamino)butyrylamino]ethoxy}ethoxy)acetylamino]ethoxy}ethoxy)acetyl]-[Glu14,Lys25]-pramlint … (peptide)
peptide: KCNTATCATQRLAEFLVHSSNNFGK([AEEA-AEEA-γGlu-C18 diacid])ILPPTNVGSNTY-NH2
modifications: disulfide 2-7; N-terminus assumed
SMILES: CC[C@H](C)[C@H](NC(=O)[C@H](CCCCNC(=O)COCCOCCNC(=O)COCCOCCNC(=O)CC[C@H](NC(=O)CCCCCCCCCCCCCCCCC(=O)O)C(=O)O)NC(=O)CNC(=O)[C@H](Cc1ccccc1)NC(=O)[C@H](CC(N)=O)NC(=O)[C@H](CC(N)=O)NC(=O)[C@H](CO)NC(=O)[C@H](CO)NC(=O)[C@H](Cc1c[nH]cn1)NC(=O)[C@@H](NC(=O)[C@H](CC(C)C)NC(=O)[C@H](Cc1ccccc1)NC(=O)[C@H](CCC(=O)O)NC(=O)[C@H](C)NC(=O)[C@H](CC(C)C)NC(=O)[C@H](CCCNC(=N)N)NC(=O)[C@H](CCC(N)=O)NC(=O)[C@@H](NC(=O)[C@H](C)NC(=O)[C@@H]1CSSC[C@H](NC(=O)[C@@H](N)CCCCN)C(=O)N[C@@H](CC(N)=O)C(=O)N[C@@H]([C@@H](C)O)C(=O)N[C@@H](C)C(=O)N[C@@H]([C@@H](C)O)C(=O)N1)[C@@H](C)O)C(C)C)C(=O)N[C@@H](CC(C)C)C(=O)N1CCC[C@H]1C(=O)N1CCC[C@H]1C(=O)N[C@H](C(=O)N[C@@H](CC(N)=O)C(=O)N[C@H](C(=O)NCC(=O)N[C@@H](CO)C(=O)N[C@@H](CC(N)=O)C(=O)N[C@H](C(=O)N[C@@H](Cc1ccc(O)cc1)C(N)=O)[C@@H](C)O)C(C)C)[C@@H](C)O
B6: N-alpha-[(S)-4-Carboxy-4-(19-carboxynonadecanoylamino)butyryl]-[Glu14,His17,Asp21,His35]-pramlintide (peptide)
peptide: {C20 diacid-γGlu}-KCNTATCATQRLAEFLHHSSDNFGPILPPTNVGSHTY-NH2
modifications: disulfide 2-7
SMILES: CC[C@H](C)[C@H](NC(=O)[C@@H]1CCCN1C(=O)CNC(=O)[C@H](Cc1ccccc1)NC(=O)[C@H](CC(N)=O)NC(=O)[C@H](CC(=O)O)NC(=O)[C@H](CO)NC(=O)[C@H](CO)NC(=O)[C@H](Cc1c[nH]cn1)NC(=O)[C@H](Cc1c[nH]cn1)NC(=O)[C@H](CC(C)C)NC(=O)[C@H](Cc1ccccc1)NC(=O)[C@H](CCC(=O)O)NC(=O)[C@H](C)NC(=O)[C@H](CC(C)C)NC(=O)[C@H](CCCNC(=N)N)NC(=O)[C@H](CCC(N)=O)NC(=O)[C@@H](NC(=O)[C@H](C)NC(=O)[C@@H]1CSSC[C@H](NC(=O)[C@H](CCCCN)NC(=O)CC[C@H](NC(=O)CCCCCCCCCCCCCCCCCCC(=O)O)C(=O)O)C(=O)N[C@@H](CC(N)=O)C(=O)N[C@@H]([C@@H](C)O)C(=O)N[C@@H](C)C(=O)N[C@@H]([C@@H](C)O)C(=O)N1)[C@@H](C)O)C(=O)N[C@@H](CC(C)C)C(=O)N1CCC[C@H]1C(=O)N1CCC[C@H]1C(=O)N[C@H](C(=O)N[C@@H](CC(N)=O)C(=O)N[C@H](C(=O)NCC(=O)N[C@@H](CO)C(=O)N[C@@H](Cc1c[nH]cn1)C(=O)N[C@H](C(=O)N[C@@H](Cc1ccc(O)cc1)C(N)=O)[C@@H](C)O)C(C)C)[C@@H](C)O

Assays:
[1] = target: T1, human calcitonin (a) receptor; experiment: cell-based or functional assay
[2] = target: T2, human amylin 3(a) receptor (human …); experiment: cell-based or functional assay

Binder | CTa receptor human EC50 [1] [pM] | Amylin receptor human EC50 [2] [pM]
KCNTATCATQRLAEFLVHSSK([AEEA-AEEA-γGlu-19‑carboxyheptadecanoyl])NFGPILPPTNVGSHTY-NH2 (disulfide 2-7) | 601 | 998
B1 | 31.5 | 55.5
B2 | 367 | 89.5
KCNTATCATQRLAEFLVHSSK([AEEA-AEEA-γGlu-19‑carboxyheptadecanoyl])NFGPILSSTNVGSHTY-NH2 (disulfide 2-7) | 336 | 858
B3 | 97 | 103
KCNTATCATQRLAEFLVHSSK([AEEA-AEEA-γGlu-19‑carboxyheptadecanoyl])NFGPILPSTNVGSHTY-NH2 (disulfide 2-7) | 480 | 1090
B4 | 248 | 391
KCNTATCATQRLAEFLHHSSSNFGK([AEEA-AEEA-γGlu-19‑carboxyheptadecanoyl])ILSSTNVGSHTY-NH2 (disulfide 2-7) | 142 | 416
KCNTATCATQRLANFLHHSSHNFGK([AEEA-AEEA-γGlu-19‑carboxyheptadecanoyl])ILSSTNVGSHTY-NH2 (disulfide 2-7) | 194 | 390
B5 | 101 | 76
B6 | 266 | 291
